We go through five molecules from patent US20140087995A1 (published 2014).

The chains are these.
B1: N^ε1-[(4S)-4-carboxy-4-(19-carboxynonadecanoylamino)butanoyl]-[Glu14,Arg17,Pro21,Pro27,Pro34,Glu35]-h-amylin (peptide)
peptide: K([γGlu-C20 diacid])CNTATCATQRLAEFLRHSSPNFGAIPSSTNVGPETY-NH2
modifications: disulfide 2-7; N-terminus assumed
SMILES: CC[C@H](C)[C@H](NC(=O)[C@H](C)NC(=O)CNC(=O)[C@H](Cc1ccccc1)NC(=O)[C@H](CC(N)=O)NC(=O)[C@@H]1CCCN1C(=O)[C@H](CO)NC(=O)[C@H](CO)NC(=O)[C@H](Cc1c[nH]cn1)NC(=O)[C@H](CCCNC(=N)N)NC(=O)[C@H](CC(C)C)NC(=O)[C@H](Cc1ccccc1)NC(=O)[C@H](CCC(=O)O)NC(=O)[C@H](C)NC(=O)[C@H](CC(C)C)NC(=O)[C@H](CCCNC(=N)N)NC(=O)[C@H](CCC(N)=O)NC(=O)[C@@H](NC(=O)[C@H](C)NC(=O)[C@@H]1CSSC[C@H](NC(=O)[C@@H](N)CCCCNC(=O)CC[C@H](NC(=O)CCCCCCCCCCCCCCCCCCC(=O)O)C(=O)O)C(=O)N[C@@H](CC(N)=O)C(=O)N[C@@H]([C@@H](C)O)C(=O)N[C@@H](C)C(=O)N[C@@H]([C@@H](C)O)C(=O)N1)[C@@H](C)O)C(=O)N1CCC[C@H]1C(=O)N[C@@H](CO)C(=O)N[C@@H](CO)C(=O)N[C@H](C(=O)N[C@@H](CC(N)=O)C(=O)N[C@H](C(=O)NCC(=O)N1CCC[C@H]1C(=O)N[C@@H](CCC(=O)O)C(=O)N[C@H](C(=O)N[C@@H](Cc1ccc(O)cc1)C(N)=O)[C@@H](C)O)C(C)C)[C@@H](C)O
B2: N^ε1-[(4S)-4-carboxy-4-[[(4S)-4-carboxy-4-(19-carboxynonadecanoylamino)butanoyl]amino]butanoyl]-[Glu14,Arg17,Pro21,Pro27,Pro34,Phe37]-h-amylin (peptide)
peptide: K([γGlu-γGlu-C20 diacid])CNTATCATQRLAEFLRHSSPNFGAIPSSTNVGPNTF-NH2
modifications: disulfide 2-7; N-terminus assumed
SMILES: CC[C@H](C)[C@H](NC(=O)[C@H](C)NC(=O)CNC(=O)[C@H](Cc1ccccc1)NC(=O)[C@H](CC(N)=O)NC(=O)[C@@H]1CCCN1C(=O)[C@H](CO)NC(=O)[C@H](CO)NC(=O)[C@H](Cc1c[nH]cn1)NC(=O)[C@H](CCCNC(=N)N)NC(=O)[C@H](CC(C)C)NC(=O)[C@H](Cc1ccccc1)NC(=O)[C@H](CCC(=O)O)NC(=O)[C@H](C)NC(=O)[C@H](CC(C)C)NC(=O)[C@H](CCCNC(=N)N)NC(=O)[C@H](CCC(N)=O)NC(=O)[C@@H](NC(=O)[C@H](C)NC(=O)[C@@H]1CSSC[C@H](NC(=O)[C@@H](N)CCCCNC(=O)CC[C@H](NC(=O)CC[C@H](NC(=O)CCCCCCCCCCCCCCCCCCC(=O)O)C(=O)O)C(=O)O)C(=O)N[C@@H](CC(N)=O)C(=O)N[C@@H]([C@@H](C)O)C(=O)N[C@@H](C)C(=O)N[C@@H]([C@@H](C)O)C(=O)N1)[C@@H](C)O)C(=O)N1CCC[C@H]1C(=O)N[C@@H](CO)C(=O)N[C@@H](CO)C(=O)N[C@H](C(=O)N[C@@H](CC(N)=O)C(=O)N[C@H](C(=O)NCC(=O)N1CCC[C@H]1C(=O)N[C@@H](CC(N)=O)C(=O)N[C@H](C(=O)N[C@@H](Cc1ccccc1)C(N)=O)[C@@H](C)O)C(C)C)[C@@H](C)O
B3: N^ε1-[(4S)-4-carboxy-4-[[(4S)-4-carboxy-4-(19-carboxynonadecanoylamino)butanoyl]amino]butanoyl]-[Ser14,Arg17,Pro21,Pro27,Pro34,Glu35]-h-amylin (peptide)
peptide: K([γGlu-γGlu-C20 diacid])CNTATCATQRLASFLRHSSPNFGAIPSSTNVGPETY-NH2
modifications: disulfide 2-7; N-terminus assumed
SMILES: CC[C@H](C)[C@H](NC(=O)[C@H](C)NC(=O)CNC(=O)[C@H](Cc1ccccc1)NC(=O)[C@H](CC(N)=O)NC(=O)[C@@H]1CCCN1C(=O)[C@H](CO)NC(=O)[C@H](CO)NC(=O)[C@H](Cc1c[nH]cn1)NC(=O)[C@H](CCCNC(=N)N)NC(=O)[C@H](CC(C)C)NC(=O)[C@H](Cc1ccccc1)NC(=O)[C@H](CO)NC(=O)[C@H](C)NC(=O)[C@H](CC(C)C)NC(=O)[C@H](CCCNC(=N)N)NC(=O)[C@H](CCC(N)=O)NC(=O)[C@@H](NC(=O)[C@H](C)NC(=O)[C@@H]1CSSC[C@H](NC(=O)[C@@H](N)CCCCNC(=O)CC[C@H](NC(=O)CC[C@H](NC(=O)CCCCCCCCCCCCCCCCCCC(=O)O)C(=O)O)C(=O)O)C(=O)N[C@@H](CC(N)=O)C(=O)N[C@@H]([C@@H](C)O)C(=O)N[C@@H](C)C(=O)N[C@@H]([C@@H](C)O)C(=O)N1)[C@@H](C)O)C(=O)N1CCC[C@H]1C(=O)N[C@@H](CO)C(=O)N[C@@H](CO)C(=O)N[C@H](C(=O)N[C@@H](CC(N)=O)C(=O)N[C@H](C(=O)NCC(=O)N1CCC[C@H]1C(=O)N[C@@H](CCC(=O)O)C(=O)N[C@H](C(=O)N[C@@H](Cc1ccc(O)cc1)C(N)=O)[C@@H](C)O)C(C)C)[C@@H](C)O
notes: also called compound 120
B4: N^ε1-[(4S)-4-carboxy-4-[[(4S)-4-carboxy-4-(19-carboxynonadecanoylamino)butanoyl]amino]butanoyl]-[Glu14,Arg17,Pro23,Pro34,Glu35]-h-amylin (peptide)
peptide: K([γGlu-γGlu-C20 diacid])CNTATCATQRLAEFLRHSSNNPGAILSSTNVGPETY-NH2
modifications: disulfide 2-7; N-terminus assumed
SMILES: CC[C@H](C)[C@H](NC(=O)[C@H](C)NC(=O)CNC(=O)[C@@H]1CCCN1C(=O)[C@H](CC(N)=O)NC(=O)[C@H](CC(N)=O)NC(=O)[C@H](CO)NC(=O)[C@H](CO)NC(=O)[C@H](Cc1c[nH]cn1)NC(=O)[C@H](CCCNC(=N)N)NC(=O)[C@H](CC(C)C)NC(=O)[C@H](Cc1ccccc1)NC(=O)[C@H](CCC(=O)O)NC(=O)[C@H](C)NC(=O)[C@H](CC(C)C)NC(=O)[C@H](CCCNC(=N)N)NC(=O)[C@H](CCC(N)=O)NC(=O)[C@@H](NC(=O)[C@H](C)NC(=O)[C@@H]1CSSC[C@H](NC(=O)[C@@H](N)CCCCNC(=O)CC[C@H](NC(=O)CC[C@H](NC(=O)CCCCCCCCCCCCCCCCCCC(=O)O)C(=O)O)C(=O)O)C(=O)N[C@@H](CC(N)=O)C(=O)N[C@@H]([C@@H](C)O)C(=O)N[C@@H](C)C(=O)N[C@@H]([C@@H](C)O)C(=O)N1)[C@@H](C)O)C(=O)N[C@@H](CC(C)C)C(=O)N[C@@H](CO)C(=O)N[C@@H](CO)C(=O)N[C@H](C(=O)N[C@@H](CC(N)=O)C(=O)N[C@H](C(=O)NCC(=O)N1CCC[C@H]1C(=O)N[C@@H](CCC(=O)O)C(=O)N[C@H](C(=O)N[C@@H](Cc1ccc(O)cc1)C(N)=O)[C@@H](C)O)C(C)C)[C@@H](C)O

Numbered stars: 1 amine (or outer) side, 2 acyl side, 3 side chain; on linkers, the order of the positions; unused ones are H or OH. Bridge positions count the residues as written; N and C are the ends. Side chains are listed from the residue outwards. Ends that are not written are not given here. * marks the point of attachment. C20 diacid = O=C(O)CCCCCCCCCCCCCCCCCCC(=O)*; γGlu = O=C(O)[C@H](CCC(=O)[*:2])N[*:1]

One assay deals with T1, human calcitonin receptor (human, UniProt P30988 25-474).
T1 construct: whole, on cells; Membranes of BHK cells stably transfected with the human calcitonin receptor (Assay VII); also called hCTR; hCT
T1 sequence (looked up): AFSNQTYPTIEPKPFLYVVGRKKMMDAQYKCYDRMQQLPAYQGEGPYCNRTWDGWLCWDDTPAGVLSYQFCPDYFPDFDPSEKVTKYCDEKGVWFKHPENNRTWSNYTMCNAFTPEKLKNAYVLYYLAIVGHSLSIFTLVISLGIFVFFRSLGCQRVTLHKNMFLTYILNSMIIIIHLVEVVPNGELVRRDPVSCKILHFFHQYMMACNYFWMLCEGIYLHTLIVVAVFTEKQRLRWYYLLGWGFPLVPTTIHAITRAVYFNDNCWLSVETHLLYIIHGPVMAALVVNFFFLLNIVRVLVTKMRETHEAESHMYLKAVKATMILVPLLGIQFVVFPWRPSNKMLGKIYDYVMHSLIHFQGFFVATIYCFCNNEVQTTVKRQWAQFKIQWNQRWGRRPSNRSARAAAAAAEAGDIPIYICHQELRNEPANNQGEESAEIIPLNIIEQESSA
The assay can be described thus: ratio of IC50 at hCTR over IC50 at hAmylin-R (SPA competition assays). The method, boiled down: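 Membranes (35 ng/μL final) + SPA beads, 50 mM Hepes pH 7.4 buffer with 1 mM CaCl2, 5 mM MgCl₂, 0.1% OA, 0.02% Tween20; 120 min, 25° C, shaking; centrifuged, counted; IC₅₀ by one-site binding competition.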
Regarding B1, the “Ratio hCT/hAmylin binding” value stood at 13.3.
For B2, the “Ratio hCT/hAmylin binding” value amounted to 18.
Still for that read-out and setting: the value for K([γGlu-γGlu-C20 diacid])CNTATCATQRLAEFLRHSSPNFGAILSSTPVGPETY-NH2 (disulfide 2-7 (inferred)) was 22.6.
Still for that read-out and setting: the figure for B3 is 45.3; for B4 it is 7.8.

The next assay has as its target T1, human calcitonin receptor. The assay is described as follows: SPA competition against 125I-calcitonin, membranes of BHK cells with human calcitonin receptor (Assay VII). An outline of the steps: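 BHK hCTR membranes 35 ng/μL + SPA beads 0.05 mg/well; buffer 50 mM Hepes pH 7.4, 1 mM CaCl2, 5 mM MgCl₂, 0.1% OA, 0.02% Tween20. 120 min, 25° C., shaking. Scintillation count; IC50 by one-site binding competition.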
Regarding B1, the IC50 was found to be 1.86 nM.
As to B2, the half-maximal inhibitory concentration (IC50) came to 2.73 nM.
K([γGlu-γGlu-C20 diacid])CNTATCATQRLAEFLRHSSPNFGAILSSTPVGPETY-NH2 (disulfide 2-7 (inferred)): the IC50 was determined as 1.56 nM.
Same read-out and setting: the figure for B3 is 3.44 nM; for B4 it is 9.29 nM.

Broadly, the IC50 is the concentration needed to halve the response being measured.
